Our source for the Kd values is patent US20120052092A1.

Test [1] has as its target fHbp Variant 3 (Neisseria meningitidis). The experiment in a line: SPR. A general note: In SPR one partner is held on a chip, and binding of the other changes the refractive index at the surface.
Test [2] has as its target fHbp Variant 2 (Neisseria meningitidis). The experiment in a line: SPR.
The target in test [3] is factor H binding protein (wild type, variant 1) (UniProt E6MV22). The experiment in a line: SPR.
For test [4] the target is unchanged. The test is described as follows: SPR; sensorgram.

fH678, sequence (P08603 321-509): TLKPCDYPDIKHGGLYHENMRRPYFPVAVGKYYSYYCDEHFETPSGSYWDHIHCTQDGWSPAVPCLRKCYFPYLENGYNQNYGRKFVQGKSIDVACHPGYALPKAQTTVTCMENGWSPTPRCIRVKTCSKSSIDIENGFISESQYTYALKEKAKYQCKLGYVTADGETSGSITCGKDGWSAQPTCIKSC

With FH67 N339E M340S, the values for the Kd in test [1] and in test [2] were 165 nM and 44 nM, respectively.

Consider fH678 (from UniProt P08603 321-509), for which the Kd (commonly a measure of binding affinity in units of concentration) worked out at 5 nM in test [3] and 4.69 nM in test [4].
